{"source": "paper PMC11459180", "about": "“Structural basis for adhesin secretion by the outer-membrane usher in type 1 pili” (Proceedings of the National Academy of Sciences of the …, 2024)", "key": {"adhesin FimH (wild type)": {"molecular_target": "T1, adhesin FimH (wild type) (Escherichia coli, UniProt P08191 22-300)", "T1 construct": "also called FimHWT; tip adhesin", "T1 sequence (P08191 22-300)": "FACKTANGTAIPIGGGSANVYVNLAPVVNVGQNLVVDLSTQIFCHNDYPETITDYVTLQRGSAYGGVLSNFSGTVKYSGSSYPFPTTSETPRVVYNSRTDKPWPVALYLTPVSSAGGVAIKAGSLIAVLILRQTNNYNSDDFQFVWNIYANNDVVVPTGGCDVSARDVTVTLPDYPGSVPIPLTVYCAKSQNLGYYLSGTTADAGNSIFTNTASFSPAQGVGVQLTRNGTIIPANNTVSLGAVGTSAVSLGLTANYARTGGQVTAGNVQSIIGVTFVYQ", "assay": "cryo-EM structure; FimD–FimCH complex, second class of particles in the same purified sample and dataset; ~3.5 Å; map fits PDB 3RFZ", "details": "both partners purified"}, "[1]": {"molecular_target": "T2, outer-membrane usher FimD (Escherichia coli, UniProt P30130 46-878)", "T2 sequence": "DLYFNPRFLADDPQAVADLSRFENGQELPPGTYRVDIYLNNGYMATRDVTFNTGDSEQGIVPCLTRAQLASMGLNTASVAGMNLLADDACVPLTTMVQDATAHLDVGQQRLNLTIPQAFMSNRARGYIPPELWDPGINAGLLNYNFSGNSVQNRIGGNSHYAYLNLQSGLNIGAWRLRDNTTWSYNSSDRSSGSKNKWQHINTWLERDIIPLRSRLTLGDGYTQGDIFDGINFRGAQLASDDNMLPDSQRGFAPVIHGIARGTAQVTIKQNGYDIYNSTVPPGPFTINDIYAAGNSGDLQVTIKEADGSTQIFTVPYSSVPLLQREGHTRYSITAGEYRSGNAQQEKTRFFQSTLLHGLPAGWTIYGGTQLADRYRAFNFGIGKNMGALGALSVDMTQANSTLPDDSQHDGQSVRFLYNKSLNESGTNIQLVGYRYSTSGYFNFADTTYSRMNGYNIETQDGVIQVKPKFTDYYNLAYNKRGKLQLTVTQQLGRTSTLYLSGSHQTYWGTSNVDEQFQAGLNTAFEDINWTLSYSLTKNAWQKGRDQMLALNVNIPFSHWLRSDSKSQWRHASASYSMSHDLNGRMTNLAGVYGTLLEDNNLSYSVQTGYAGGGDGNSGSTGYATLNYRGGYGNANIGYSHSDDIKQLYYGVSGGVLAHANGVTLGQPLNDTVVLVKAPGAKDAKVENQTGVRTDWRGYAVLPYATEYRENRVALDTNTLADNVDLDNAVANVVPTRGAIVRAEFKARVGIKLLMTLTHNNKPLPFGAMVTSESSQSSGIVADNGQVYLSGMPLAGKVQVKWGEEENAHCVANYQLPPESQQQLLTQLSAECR", "assay": "cryo-EM structure", "details": "both partners purified"}}, "data": [{"binder": "periplasmic chaperone FimC with a C-terminal polyhistidine tag (natural protein, also called FimChis; FimCHis; not shown: polyhistidine, C-terminal, kept) GVALGATRVIYPAGQKQEQLAVTNNDENSTYLIQSWVENADGVKDGRFIVTPPLFAMKGKKENTLRILDATNNQLPQDRESLFWMNVKAIPSMDKSKLTENTLQLAIISRIKLYYRPAKLALPPDQAAEKLRFRRSANSLTLINPTPYYLTVTELNAGTRVLENALVPPMGESTVKLPSDAGSNITYRTINDYGALTPKMTGVME", "values": [{"measurement": "binding result", "setting": "adhesin FimH (wild type)", "result": "binds"}, {"measurement": "binding result", "setting": "[1]", "result": "binds"}]}]}
